The target of assay [1] is T1, recombinant human RAGE (plate coat of the competition ELISA of Example 1.4).
T1 construct: not shown: The carrier of the coated preparation, if it had one
Nature of the assay: competition ELISA on plates coated with recombinant human RAGE (2 µg/mL); competitor: biotinylated hybridoma-derived 11E6 (11E6-biotin), streptavidin-HRP, OD 450 nm; the unit comes from the axis 'Log MAbs (M)'. As for the experimental part:
(§1) The purified chimeric anti-human RAGE monoclonal antibodies were tested for their ability to bind human RAGE in a competition ELISA. […] Equal volumes (50 μL) of each recombinant chimeric anti-human RAGE monoclonal antibodies or hybridoma-derived anti-human RAGE monoclonal antibodies and each corresponding biotinylated hybridoma-derived anti-RAGE mAbs were mixed. 50 μL of this mixture was then added to ELISA plates pre-coated with recombinant human RAGE at 2 μg/mL and incubated for 1.5 hours at room temperature. Wells were washed three times with PBS+0.05% Tween-20. Streptavidin HRP (1 mg/mL) was diluted 1:16000 in PBST+10% Superblock; 50 µL/well was added and the plates incubated for 1 hour at room temperature. Plates were washed 3 times with PBS+0.05% Tween-20. 50 µL of TMB solution (Sigma, St Louis, Mo.) was added to each well and incubated for 10 minutes at room temperature. The reaction was stopped by addition of IN sulphuric acid. Plates were read spectrophotometrically at a wavelength of 450 nm.
Background: ELISA stands for enzyme-linked immunosorbent assay.

The target of assay [2] is T2, biotinylated Aβ1-42 globulomer (UniProt P05067 672-713, 1/5 of the Aβ1-42 peptide used was Biotinyl-Amyloid β-Protein (1-42)).
T2 construct: domain: Amyloid β-Protein (1-42); Oligomer of Aβ1-42; Concentrations are calculated as Aβ1-42 monomer; also called Aβ-globulomer; amyloid Aβ-globulomers
Nature of the assay: ALPHA screen: RAGE-Fc titrated on protein A acceptor beads, biotinylated Aβ globulomer on streptavidin donor beads.

Assay [3] has as its target T1, recombinant human RAGE (plate coat of …). Nature of the assay: competition ELISA on plates coated with recombinant human RAGE (2 µg/mL); competitor: biotinylated hybridoma-derived 4E5 (4E5-biotin), streptavidin-HRP, OD 450 nm; the unit comes from the axis 'Log MAbs (M)'. Here is the method: as §1

A word on the EC50: it is the concentration at which the effect is half-maximal.

B1: 11E6-recombinant (antibody, V domains shown)
VH: QIQLVQSGPELKKPGETVKISCKASGYTFTNFGMNWVKQAPGKGLKWMGYINTNTGESIYSEEFKGRFAFSLETSASTAYLQINNLKNEDTATYFCARSRMVTAYGMDYWGQGTSVTVSS
VL: DIVMTQSQKFMSTSVGDRVSITCKASQNVGTAVAWYQQRPGQSPKLLIFSASNRYTGVPDRFTGSGSGTDFTLTLSNMQPEDLADYFCQQYSSYPLTFGVGTKLELKR
notes: also called recombinant chimeric anti-human RAGE monoclonal antibody 11E6 (human IgG1/kappa)
Consider B1, for which, in assay [1], the EC50 is 64.7 nM.

B2: C-terminal shortened husRAGE fusion protein (1-130-sRAGE-Fc) (Fc fusion)
chain: AQNITARIGEPLVLKCKGAPKKPPQRLEWKLNTGRTEAWKVLSPQGGGPWDSVARVLPNGSLFLPAVGIQDEGIFRCQAMNRNGKETKSNYRVRVYQIPGKPEIVDSA
notes: also called husRAGE-1-130-Fc; RAGE-Fc mutant protein consisting of the v-domain only; not shown: C-terminal part of a human IgG heavy chain ('hIgG lambda hc 257-Stop')
Take B2: the binding result in assay [2] is “no binding (tested: about 30 ng/µl)”.

B3: 4E5-recombinant (antibody, V domains shown)
VH: QVQLQQSGAELVRPGTSVKVSCKASGYAFNNYLIEWIKQRPGQGLEWIGVINPGSGGTNHNEKFKVKATLTADKSSSTAYIQLSSLTSDDSAVYFCARSAGTARARFAYWGQGTLVTVSA
VL: DIQMTQSPSSLSASLGERVSLTCRASQDIGSSLNWLQQEPDGTIKRLIYATSSLDSGVPKRFSGSRSGSDYSLTISSLESEDFVDYYCLQYASFPFTFGSGTKLEIKR
notes: also called recombinant chimeric anti-human RAGE monoclonal antibody 4E5 (human IgG1/kappa)
Consider B3, for which the EC50 in assay [3] was 66.2 nM.

(Values after US20170002075A1 (AbbVie / Abbott, published 2017).)
